Measured values as given in patent publication US20220380486A1 (COMMISSARIAT A L ENERGIE ATOMIQUE ET AUX ENERGIES …, published 2022).

B1: Mutant of the C-terminal part and histidine tag, SEQ ID NO: 27 (other)
chain: MHHHHHHGAMARKELSSLEELFRHYGVRYMTLTKMVEMGFTVNTLVNMTEQELDDVIRTLVDIYRVDLLVGEKYGIKSAVRAEKRRLDELERKKGGSHHHHHH
B2: Mutant of the C-terminal part and the histidine tag, SEQ ID NO: 18 (C-terminal part removed, histidine tag modified) (other)
chain: MHHHHHHGAMARKELSSLEELFRHYGVRYMTLTKMVEMGFTVNTLVNMTEQELDDVIRTLVDIYRVDLLVGEKYGIKSAVRAEKRR
B3: Mutant with a self-reducing sequence at the C-terminal part, SEQ ID NO: 29 (C-terminal part and histidine tag modified) (other)
chain: MKHHHHHHPGAMARKELSSLEELFRHYGVRYMTLTKMVEMGFTVNTLVNMTEQELDDVIRTLVDIYRVDLLVGEKYGIKSAVRAEKRRLDELERKKGGSTGTSVLIATPGV
B4: Mutant of the C-terminal part and histidine tag, SEQ ID NO: 26 (other)
chain: MHHHHHHGAMARKELSSLEELFRHYGVRYMTLTKMVEMGFTVNTLVNMTEQELDDVIRTLVDIYRVDLLVGEKYGIKSAVRAEKRRLDELERKKGGSC
B5: Mutant with a self-reducing sequence at the C-terminal part, SEQ ID NO: 31 (C-terminal part and histidine tag modified) (other)
chain: MKHHHHHHPGAMARKELSSLEELFRHYGVRYMTLTKMVEMGFTVNTLVNMTEQELDDVIRTLVDIYRVDLLVGEKYGIKSAVRAEKRRLDELERKKGGSWAGAKRLVLRRE

Target: the molecule itself
Assay: self-assembly (homo-oligomerisation) by crystallisation on a substrate

Binding result, binds:
B1, B2, B3, B4, B5
